According to PMC6637149, “Cryo-EM and directed evolution reveal how Arabidopsis nitrilase specificity is influenced by its quaternary structure” (Communications Biology, 2019):

B1: Arabidopsis thaliana nitrilase 4 (AtNIT4), wild type (enzyme, UniProt P46011 1-355, looked up)
chain: MSMQQETSHMTAAPQTNGHQIFPEIDMSAGDSSSIVRATVVQASTVFYDTPATLDKAERLLSEAAENGSQLVVFPEAFIGGYPRGSTFELAIGSRTAKGRDDFRKYHASAIDVPGPEVERLALMAKKYKVYLVMGVIEREGYTLYCTVLFFDSQGLFLGKHRKLMPTALERCIWGFGDGSTIPVFDTPIGKIGAAICWENRMPSLRTAMYAKGIEIYCAPTADSRETWLASMTHIALEGGCFVLSANQFCRRKDYPSPPEYMFSGSEESLTPDSVVCAGGSSIISPLGIVLAGPNYRGEALITADLDLGDIARAKFDFDVVGHYSRPEVFSLNIREHPRKAVSFKTSKVMEDESV
notes: Nitrilase 4 of Arabidopsis thaliana, NP_197622.1, AT5G22300; 355 residues in all, 289 built in the model; Forms open-ended left-handed helical filaments built of dimers, so no fixed number of copies. pET-21b(+) usually adds a C-terminal His6 tag (surmised); also called AtNIT4 wt; source: E. coli BL21-CodonPlus (DE3)-RIL, pET-21b(+), purified (Ni-NTA, SEC)
B2: AtNIT4 R95T L169A S224Q (enzyme, Arabidopsis thaliana, UniProt P46011 1-355, looked up)
chain: MSMQQETSHMTAAPQTNGHQIFPEIDMSAGDSSSIVRATVVQASTVFYDTPATLDKAERLLSEAAENGSQLVVFPEAFIGGYPRGSTFELAIGSTTAKGRDDFRKYHASAIDVPGPEVERLALMAKKYKVYLVMGVIEREGYTLYCTVLFFDSQGLFLGKHRKLMPTAAERCIWGFGDGSTIPVFDTPIGKIGAAICWENRMPSLRTAMYAKGIEIYCAPTADQRETWLASMTHIALEGGCFVLSANQFCRRKDYPSPPEYMFSGSEESLTPDSVVCAGGSSIISPLGIVLAGPNYRGEALITADLDLGDIARAKFDFDVVGHYSRPEVFSLNIREHPRKAVSFKTSKVMEDESV
notes: Nitrilase 4 of Arabidopsis thaliana, NP_197622.1, with three substitutions selected from a site-saturation library made in the vector of the wild type; Selected by directed evolution from the AtNIT4 pET-21b(+) vector; full length is inferred from the parent construct; also called the mutant; NIT4 mutant; source: E. coli BL21-CodonPlus (DE3)-RIL, pET-21b(+), purified (Ni-NTA, SEC)
B3: AtNIT4 R95T (enzyme, Arabidopsis thaliana, UniProt P46011 1-355, looked up)
chain: MSMQQETSHMTAAPQTNGHQIFPEIDMSAGDSSSIVRATVVQASTVFYDTPATLDKAERLLSEAAENGSQLVVFPEAFIGGYPRGSTFELAIGSTTAKGRDDFRKYHASAIDVPGPEVERLALMAKKYKVYLVMGVIEREGYTLYCTVLFFDSQGLFLGKHRKLMPTALERCIWGFGDGSTIPVFDTPIGKIGAAICWENRMPSLRTAMYAKGIEIYCAPTADSRETWLASMTHIALEGGCFVLSANQFCRRKDYPSPPEYMFSGSEESLTPDSVVCAGGSSIISPLGIVLAGPNYRGEALITADLDLGDIARAKFDFDVVGHYSRPEVFSLNIREHPRKAVSFKTSKVMEDESV
notes: Nitrilase 4 of Arabidopsis thaliana, NP_197622.1, with the substitution R95T; Full length is inferred from the parent construct; source: E. coli BL21-CodonPlus (DE3)-RIL, pET-21b(+), purified (Ni-NTA, SEC)

How the values were obtained:
[1] = biological target: the molecule itself; assay: cryo-EM structure; purified AtNIT4 filaments (~0.15 mg/ml) in 50 mM Tris-HCl pH 8.0, 100 mM NaCl, blotted at ~10% humidity, 25 °C; helical reconstruction, one helical turn treated as a single particle
[2] = biological target: the molecule itself; assay: negative-stain electron microscopy with 3D helical reconstruction; purified NIT filaments on carbon-coated copper grids, 2% uranyl acetate; iterative helical real-space reconstruction

Protein	binding result [1]	binding result [2]
B1	binds	–
B2	–	binds
B3	–	binds
